{"source": "paper PMC6677920", "about": "(2019)", "molecular_target": "recombinant bovine respiratory syncytial virus fusion (F) protein, purified (bovine respiratory syncytial virus, UniProt P22167 26-513)", "assay": "SPR"}
{"binder": "hybrid Fab B4* (B4 HC/B13 LC) (Fab, V domains shown) VH: QVQLQESGPSLVKPSQTLSLTCTVSGFSLSSYSVSWVRQAPGKTLEWLGDASNGGIIYYNPALKSRLGITRDNSKSQVSLSLNTITPEDTATYYCAKCSVGDSGSYACTGRKGEYVDAWGQGLLVTVSS VL: QAVLTQPPSVSGSLGQRVSITCSGSSDNIGIFAVGWYQQVPGSGLRTIIYGNTKRPSGVPDRFSGSKSGNTATLTINSLQAEDEADYFCVCGESKSATPVFGGGTTLTVL", "values": [{"measurement": "Kd", "result": "~12", "unit": "µM"}]}
